Data published in paper PMC5897774, “Mitotic spindle association of TACC3 requires Aurora‐A‐dependent stabilization of a cryptic α‐helix” (The EMBO Journal, 2018).
Values belong to the molecule of their own block, whether it stands above or below them. Non-standard residues stand in square brackets, D forms with d. No end group written: not given here. pS = N[C@@H](COP(=O)(O)O)C(=O)O; FAM = fluorescein label

B2: FAM‐TACC3 549–570 phosphorylated on S558 (FAM‐phospho‐TACC3^CID) (peptide, UniProt Q9Y6A5 549-570, looked up)
peptide: {FAM}-FKESALRKQ[pS]LYLKFDPLLRDS
notes: TACC3, human, aa549–570 (TACC3^CID); also called pTACC3^CID; FAM‐labelled pTACC3^CID; source: FAM‐labelled peptide (FAM‐TACC3 peptides: PPR, Cambridge; Almac, Craigavon)

How the values were obtained:
Aurora‐A R151A = target: T1, Aurora‐A R151A (Homo sapiens, UniProt O14965, C290A/C393A/R151A); test: FP binding assay, Aurora‐A R151A; settings: fluorescence polarization, Aurora‐A R151A relative to WT Aurora‐A
T1 construct: pET30TEV Aurora‐A 122–403 C290A, C393A were produced in a similar manner; made in house
T1 sequence (O14965 122-403 R151A/C290A/C393A): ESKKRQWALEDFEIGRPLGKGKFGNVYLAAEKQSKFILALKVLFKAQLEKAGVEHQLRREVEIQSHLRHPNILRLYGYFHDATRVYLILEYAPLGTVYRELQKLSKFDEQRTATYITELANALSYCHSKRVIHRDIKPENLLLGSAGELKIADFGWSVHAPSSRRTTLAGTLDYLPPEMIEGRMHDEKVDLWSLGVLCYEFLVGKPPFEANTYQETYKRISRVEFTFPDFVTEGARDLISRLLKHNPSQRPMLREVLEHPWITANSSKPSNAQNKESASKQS
Description: The contributions of the site 1 residues to the interaction were quantified using fluorescence polarization spectroscopy (FP) with a set of fluorescein (FAM)‐labelled peptides.
Binding assays were performed in triplicate. FP signal was fit to a one‐site total binding model in Prism 6 (GraphPad). Results are reported as K d ± SE.

[1] = target: T2, FAM‐phospho‐TACC3^CID F563A (human, UniProt Q9Y6A5 549-570, F563A, fluorescein (FAM) label; phosphoserine at 558); test: fluorescence polarisation; CHC proteins serially diluted in 20 mM HEPES–NaOH pH 7.5, 200 mM NaCl, 5 mM DTT; 50 nM FAM‐labelled TACC3 peptide; 30 min at room temperature; read at 25°C; settings: both partners purified
T2 construct: TACC3, human, aa549–570 (TACC3^CID); source: FAM‐labelled peptide (FAM‐TACC3 peptides: PPR, Cambridge; Almac, Craigavon)
T2 peptide (looked up): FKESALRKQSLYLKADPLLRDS

[2] = target: T3, FAM‐phospho‐TACC3^CID Y560A (human, UniProt Q9Y6A5 549-570, Y560A, fluorescein (FAM) label; phosphoserine at 558); test: as above; settings: both partners purified
T3 construct: TACC3, human, aa549–570 (TACC3^CID); source: FAM‐labelled peptide (FAM‐TACC3 peptides: PPR, Cambridge; Almac, Craigavon)
T3 peptide (looked up): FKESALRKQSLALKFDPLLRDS

[3] = target: T4, FAM‐phospho‐TACC3^CID L559A (human, UniProt Q9Y6A5 549-570, L559A, fluorescein (FAM) label; phosphoserine at 558); test: as above; settings: both partners purified
T4 construct: TACC3, human, aa549–570 (TACC3^CID); source: FAM‐labelled peptide (FAM‐TACC3 peptides: PPR, Cambridge; Almac, Craigavon)
T4 peptide (looked up): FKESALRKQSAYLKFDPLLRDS

[4] = target: B2; test: as above; settings: both partners purified
[5] = target: The R555A mutation alone or in combination with K556A (FAM‐phospho‐TACC3^CID peptides); test: as above
TACC3 546-573 pS558 = target: T5, TACC3 546-573 pS558 (Homo sapiens, phospho-Ser558; FAM-labelled); test: FP
T5 chain: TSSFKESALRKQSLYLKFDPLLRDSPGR

TACC3 552-567 pS558 = target: T6, TACC3 552-567 pS558 (Homo sapiens, also: FAM-labelled, place not given here); test: FP
T6 chain: SALRKQ[pS]LYLKFDPLL

CHC 1–574 L503A/Y504A = target: T7, CHC 1–574 L503A/Y504A (UniProt Q00610 1-574, L503A | Y504A); test: fluorescence polarisation; CHC proteins serially diluted in 20 mM HEPES–NaOH pH 7.5, 200 mM NaCl, 5 mM DTT; 50 nM FAM‐labelled TACC3 peptide; 30 min at room temperature; read at 25°C; settings: both partners purified
T7 construct: source: expressed and purified as the WT protein (modified pGEX vector; GST cleaved with TEV)
T7 sequence (looked up): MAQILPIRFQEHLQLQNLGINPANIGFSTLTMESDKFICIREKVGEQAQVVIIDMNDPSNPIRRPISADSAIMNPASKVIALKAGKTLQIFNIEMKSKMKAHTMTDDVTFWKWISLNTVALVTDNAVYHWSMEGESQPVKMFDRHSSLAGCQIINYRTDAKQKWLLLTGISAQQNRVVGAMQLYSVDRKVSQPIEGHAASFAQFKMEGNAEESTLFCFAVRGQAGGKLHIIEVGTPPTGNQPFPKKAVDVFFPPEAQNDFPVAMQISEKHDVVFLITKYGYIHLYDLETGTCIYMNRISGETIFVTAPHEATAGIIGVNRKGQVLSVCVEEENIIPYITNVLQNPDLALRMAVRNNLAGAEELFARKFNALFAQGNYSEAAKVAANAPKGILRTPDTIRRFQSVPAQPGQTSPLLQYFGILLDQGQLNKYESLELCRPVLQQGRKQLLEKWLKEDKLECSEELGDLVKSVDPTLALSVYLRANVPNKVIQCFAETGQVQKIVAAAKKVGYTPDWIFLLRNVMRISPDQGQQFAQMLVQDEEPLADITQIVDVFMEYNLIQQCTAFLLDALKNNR

CHC 1–574 R481E = target: T8, CHC 1–574 R481E (UniProt Q00610 1-574, R481E); test: as above; settings: both partners purified
T8 construct: source: expressed and purified as the WT protein (modified pGEX vector; GST cleaved with TEV)
T8 sequence (looked up): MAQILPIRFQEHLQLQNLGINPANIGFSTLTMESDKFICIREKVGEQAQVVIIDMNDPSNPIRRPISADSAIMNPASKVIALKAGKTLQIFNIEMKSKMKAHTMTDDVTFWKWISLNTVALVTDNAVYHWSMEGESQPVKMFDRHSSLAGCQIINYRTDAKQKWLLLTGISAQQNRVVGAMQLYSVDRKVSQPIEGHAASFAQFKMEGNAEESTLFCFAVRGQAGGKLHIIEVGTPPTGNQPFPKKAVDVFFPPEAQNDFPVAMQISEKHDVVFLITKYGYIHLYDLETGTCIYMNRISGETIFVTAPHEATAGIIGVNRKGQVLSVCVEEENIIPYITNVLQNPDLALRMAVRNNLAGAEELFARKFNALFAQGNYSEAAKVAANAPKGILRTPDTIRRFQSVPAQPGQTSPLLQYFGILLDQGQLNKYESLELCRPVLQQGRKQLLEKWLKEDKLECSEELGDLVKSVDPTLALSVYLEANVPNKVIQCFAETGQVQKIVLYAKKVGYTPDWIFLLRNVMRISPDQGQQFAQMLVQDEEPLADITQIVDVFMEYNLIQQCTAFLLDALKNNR

CHC 1–574 L480D = target: T9, CHC 1–574 L480D (UniProt Q00610 1-574, L480D); test: as above; settings: both partners purified
T9 construct: source: expressed and purified as the WT protein (modified pGEX vector; GST cleaved with TEV)
T9 sequence (looked up): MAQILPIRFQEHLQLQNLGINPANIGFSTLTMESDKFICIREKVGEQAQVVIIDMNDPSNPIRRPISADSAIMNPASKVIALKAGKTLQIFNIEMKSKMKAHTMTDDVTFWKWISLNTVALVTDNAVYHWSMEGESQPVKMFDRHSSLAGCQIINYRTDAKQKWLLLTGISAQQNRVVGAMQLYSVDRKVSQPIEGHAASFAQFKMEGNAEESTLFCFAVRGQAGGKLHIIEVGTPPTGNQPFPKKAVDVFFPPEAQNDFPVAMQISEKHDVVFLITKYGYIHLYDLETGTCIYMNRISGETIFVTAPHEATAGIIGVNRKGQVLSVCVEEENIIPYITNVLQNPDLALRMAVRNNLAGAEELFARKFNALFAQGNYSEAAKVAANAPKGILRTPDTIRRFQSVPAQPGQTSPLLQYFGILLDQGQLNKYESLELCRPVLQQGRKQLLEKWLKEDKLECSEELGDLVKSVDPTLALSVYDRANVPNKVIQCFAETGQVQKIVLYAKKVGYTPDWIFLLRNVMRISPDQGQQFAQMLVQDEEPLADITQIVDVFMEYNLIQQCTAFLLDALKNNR

CHC 1–574 L476D, L480D = target: T10, CHC 1–574 L476D, L480D (UniProt Q00610 1-574, L476D | L480D); test: as above; settings: both partners purified
T10 construct: source: expressed and purified as the WT protein (modified pGEX vector; GST cleaved with TEV)
T10 sequence (looked up): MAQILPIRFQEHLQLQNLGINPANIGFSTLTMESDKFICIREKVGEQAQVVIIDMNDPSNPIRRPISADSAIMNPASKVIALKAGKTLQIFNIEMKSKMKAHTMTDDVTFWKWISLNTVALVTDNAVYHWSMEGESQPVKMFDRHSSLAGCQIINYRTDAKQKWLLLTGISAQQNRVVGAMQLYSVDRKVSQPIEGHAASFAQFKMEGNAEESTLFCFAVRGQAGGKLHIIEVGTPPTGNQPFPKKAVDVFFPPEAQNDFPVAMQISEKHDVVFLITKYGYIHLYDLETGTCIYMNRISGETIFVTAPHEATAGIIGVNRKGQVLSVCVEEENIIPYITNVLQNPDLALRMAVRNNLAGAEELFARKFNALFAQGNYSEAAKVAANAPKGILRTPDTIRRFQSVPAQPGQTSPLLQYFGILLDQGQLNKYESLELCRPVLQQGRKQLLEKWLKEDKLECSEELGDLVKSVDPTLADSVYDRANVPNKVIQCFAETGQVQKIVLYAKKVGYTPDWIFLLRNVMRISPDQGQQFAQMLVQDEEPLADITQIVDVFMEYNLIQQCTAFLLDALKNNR

reduced affinity (Aurora‐A R151A): 40 fold
Molecule: CC(C)C[C@H](NC(=O)[C@@H](NC(=O)[C@H](CCC(=O)O)NC(=O)[C@H](C)NC(=O)[C@@H]1CCCN1C(=O)[C@H](CC(=O)O)NC(=O)[C@H](CCCNC(=N)N)NC(=O)[C@H](Cc1ccccc1)NC(=O)[C@H](CO)NC(=O)[C@H](CCC(=O)O)NC(=O)[C@H](CCC(=O)O)NC(=O)c1ccc2c(c1)C(=O)OC21c2ccc(O)cc2Oc2cc(O)ccc21)C(C)C)C(=O)NCC(=O)N[C@H](C(=O)NCC(=O)N[C@@H](C)C(=O)O)[C@@H](C)O [FAM‐TACC3 522–536]

fold reduction in affinity against WT [1]: ≥ 4 fold | fold reduction in affinity against WT [2]: ≥ 4 fold | fold reduction in affinity against WT [3]: ≥ 4 fold | fold increase in affinity against non‐phosphorylated TACC3^CID [4]: 4 fold | fold reduction in affinity against WT [5]: 4 to 5 fold | Kd (TACC3 546-573 pS558): 39 µM | Kd (TACC3 552-567 pS558): 48 µM
B1: CHC 1–574 (clathrin heavy chain propeller‐ankle fragment) (domain or fragment, UniProt Q00610 1-574, looked up)
chain: MAQILPIRFQEHLQLQNLGINPANIGFSTLTMESDKFICIREKVGEQAQVVIIDMNDPSNPIRRPISADSAIMNPASKVIALKAGKTLQIFNIEMKSKMKAHTMTDDVTFWKWISLNTVALVTDNAVYHWSMEGESQPVKMFDRHSSLAGCQIINYRTDAKQKWLLLTGISAQQNRVVGAMQLYSVDRKVSQPIEGHAASFAQFKMEGNAEESTLFCFAVRGQAGGKLHIIEVGTPPTGNQPFPKKAVDVFFPPEAQNDFPVAMQISEKHDVVFLITKYGYIHLYDLETGTCIYMNRISGETIFVTAPHEATAGIIGVNRKGQVLSVCVEEENIIPYITNVLQNPDLALRMAVRNNLAGAEELFARKFNALFAQGNYSEAAKVAANAPKGILRTPDTIRRFQSVPAQPGQTSPLLQYFGILLDQGQLNKYESLELCRPVLQQGRKQLLEKWLKEDKLECSEELGDLVKSVDPTLALSVYLRANVPNKVIQCFAETGQVQKIVLYAKKVGYTPDWIFLLRNVMRISPDQGQQFAQMLVQDEEPLADITQIVDVFMEYNLIQQCTAFLLDALKNNR
notes: source: modified pGEX vector

Molecule: B2
Kd (CHC 1–574 L503A/Y504A): > 300 µM | Kd (CHC 1–574 R481E): > 300 µM | Kd (CHC 1–574 L480D): > 300 µM | Kd (CHC 1–574 L476D, L480D): > 300 µM
